Source: the DeepSol protein solubility set

Assay: soluble on expression in E. coli; label from the status in PepcDB or PDB records

Sequence | soluble on expression in E. coli
MIEFTALDDLSLLRESVSLECKLAQGRDGKGALPDDFWPTYSAMANTDGGIVILGVRERKGQFEVAGIENPDKLRTELFNHLNNRQKVSVNLLRDEDVRAWPVEGKTLLVVEIPRARRQQRPVYLRGNPLGGHTYRRLHEGDRPLPDEDVKRMLAEQVEDSRDERILPGYGLDDLHLESLRAYRQLFANRDPSHPWNALADQAFLRQIGGWRQHRETGEAGLTLAGLLMFGQWSSITEAVPLCFLDYQERPADYATTVQWLDRIVPDGTWSGNVFDFYRRVVGKLTADIKVPFVLKGDIRQDDTPTHKALREALVNTLVHADYTGRISVLVVKEPAGFVLRNPGGLRVPAQQALQGGMSDCRNRTMQQMFLMIGLGERAGSGMSRIVHGWRDLGHELHLRESYEPHEHSVLEMFWAKGRGATLASESSEESSEESSEETGKKILHLLREEPSLTASALARRLQLTPRAIEKQLEHHHHHH | not soluble
MEELVGLLRIRVKRGINLAQRDTLSSDPFVVITMGSQKLKTRVVENNCNPEWNEELTLALRHPDEPVNLIVYDKDTFTSHDKMGDAKIDIKPFLEVHKMGLQELPDGTEIKRVVPNRENCLAEASSIVSNNGKIVQNMILLLRNVECGEVEIQLEWIDIPGSRGL | not soluble
MDALFNHKEFIRLSHEGNINYEKLKVPKNTELVNTADQRNSHVYLIIDGFVSISMNPESNSIYTILGKGSFVNYYSLFQGNVDDFLFKTISTCTVYKYTFKDLEYFLSMFPENFGFQFFIMRDLARHAFFKSLSSETSSSDKLELSFINIGKLHGTPYEKDSVILPKEMRTSVIAAYSNLSKSSFYKQLARLKDQGKIWKNDREWVLKNKEVYDYLKAREIDV | not soluble
AIAFQPVTQKRLTNVSVVRMRKGGKRFEIACYPNMVMAYREGHVRDLDEVIQVEDVFENVSKGKLAANADLERCFGTRDRHAVLLQILLHGDLQVSDRERQYQSTRKLHEIASVVAAKTISRETKKPLPVGLIEKALREIHFAVQPNRPAKAQALEVIPLLRAQSGLDLERARLRLRIHVPSQRDAKAVKARLEPLQQGETDGTHSSSRSDSVRMKDGSAAVESESEEWLPGGALLWTVQADPGAFREIEEIVQRETNQQGIVEVASLRVLDDEDESILS | soluble
MLKNLRIRKFEPEEEYVYFTYSIKNDKREKSKELIREYTTLLQKAIDYLWNLTKIQVRKKNGNYKITLPKKREVYKPLREELEKINHLASHYVDKAINDAFSILKSWRKRAIKGRASIEKPRVKKAYVRIKTTLRKVVGESVRITVRPHEYITFSWSKSWFSRRVRELELGEPIIKEEKVYLPFRYKLPWATPVDFLAIDSNLYTLDAYDGEKFVTISLKQLYSLKYSMEVKRAKVQSFASKHTKRGRELMRKYSHRERNRVLDFVHKFVNTLLDLYPMTFFAVEKLNKESMFKDANDSLSRKISRTVWGSIHRVLKYKAPLYGSFVKEVNPRFTSRSCPRCGFVSRKVGKTFECERCGFKLDRQLNASLNIYLKMCGFPHIREIARVWVGVIPLMGRRGMNGFPRDFGEAQGLRIDIEYHEIPLEHHHHHH | soluble
PDMKESMSDLYYEMISSAQKSIWIATPYFVPNESIRTALKAAATKGVEVRVMVPEKNDSFLTQYASRSYFPELLLEGIEVYSYQKGFMHQKVMIIDGDLASVGTANMDMRSFQLNFEVNVFFTDAEAIRTLEAHFEEDMQESEKLS | soluble
MEAKQRIIPAIKTMKQFDAFLSSGYTVGVLLEVHIAQLKSIFAYARRHGKELIVHVDLVQGLSHDEHAAEYLCQEFRPHGLISTKAGVIMKARQKRVLAVQRIFLLDSHALEKSYQLIAKTNPDCIEVIPGAMPHIIREVKERTGKPIYAGGLIRTVDDVERALAAGAAAVTTSNETLWRHYNG | not soluble
TMSSCVSSQPSSNRAAPQDELGGRGSSSSESQKPCEALRGLSSLSIHLGMESFIVVTECEPGCAVDLGLARDRPLEADGQEVPLDSSGSQARPHLSGRKLSLQERSQGGLAAGGSLDMNGRCICPSLPYSPVSSPQSSPRLPRRPTVESHHVSITGMQDCVQLNQYTLKDEIGKGSYGVVKLAYNENDNTYYAMKVLSKKKLIRQAGFPRRPPPRGTRPAPGGCIQPRGPIEQVYQEIAILKKLDHPNVVKLVEVLDDPNEDHLYMVFELVNQGPVMEVPTLKPLSEDQARFYFQDLIKGIEYLHYQKIIHRDIKPSNLLVGEDGHIKIADFGVSNEFKGSDALLSNTVGTPAFMAPESLSETRKIFSGKALDVWAMGVTLYCFVFGQCPFMDERIMCLHSKIKSQALEFPDQPDIAEDLKDLITRMLDKNPESRIVVPEIKLHPWVTRHGAEPLPSEDENCTLVEVTEEEVENSVKHIPSLATVILVKTMIRKRSFGNPFEGSRREERSLSAPGNLLTKKPTRECESLSELKGTKKKKGLDSMTSTVAAGWLDRRV | soluble
MGHHHHHHSHMEEERRDDYKFLRIQDAFKALHLHVNLIGVIVELGFSNGSDCSCTLKIVDPWYSGSGLPVKFVARTIRDLPRVESIGDIILLSRVKIVLINRKITALCNETTSSSFALFNGKHSVDSIPYQSSPKFLMREQDKNFLSNLREWMITYKFEDGS | not soluble
GTERPYGQREVDHYAEKQAIAERAAQEVREGQVVCFDAGSTTMEVARAIPDTDYVAATNMPDLATELAEGDVDTKLTGGSLRPRTRALVGPTAERAVERMNFDLLFLGTNALDSAAGLSTPNEDEAAIKELMVERARRVVLVADASKFGDR | not soluble
MTNVLWLQGGACSGNTMSFLNGEEPTACDLIANFGIKVLWHPSLGVELGNNLQTLLWDCVLGKTPLDILVFEGSVVNAPNGTGEWNRFADRPMKDWLIDLSQAAKFIVAVGDCATWGGIPAMSPNPSDSKGLQFLKRKEGGFLGKDFVSKAGLPVINIPGCPTHPDWITQILVAIATGRTDDIVLDELHRPQTFFNTYTQTGCTRNIHFAYKATTAEFGQRKGCLFYDLGCRGPMTHSSCNRILWNRISSKTRAGMPCLGCTEPEFPFFDLKPGTVFKTQTVMGVPKEIPPGVNHRDYAVLTVVAKDAAPKWADEDFFTV | not soluble
MINNVLVWKQPNISWIHPINIDNSINANNFNFDYLDTLNKLRSSNLKILELRDIADKISDGPFGSQLKVEEYKEQGFPVYRVKNIIDTQILDDDIVYIDAKKQQQLKRSEVLPGDVLITKAGRIGSAAVVPSKFGNGNITSHLVLVRLKKTINNYYLVAYLECKYGKVITGRESYKSTRPELTKNEIGNVIIPIPSPEIQKYIGDKVRKAEELREEAKRLKKEAETFLYEMIQLKPLNDFDKDMFSFVNSNYIDSERLDSEYYKTKYITLEKLLKSKKVTSFKDIIIESKYGASVPADYTMVGIPFIRGNNLTDNEINIDDIVYLNKKLKDEVKDHHVNTGDILITRSGTVGISAVVDEKCDGFSFGSFMIKLRIDMRIWNPYYIAAFLNSFWGKWQIERLQNGAVQQNINLQEIGRIIIPIISKENQDKIEELIKNYINKKRQSKQLIQEAKQDVEDLIEGNFDMSKVKANS | soluble
MGSSHHHHHHSSGLVPRGSHMSSTMSADQSNRARPVIRIKENPEDFTVEEVADIPKSDNGKYTIIKAEIIDWDTNRIVEEIASALRISRKRISYAGTKDKRARKIQYFCINAPVDVSVLAFKGFRIIDRFRSDHYLRLGDLTANHFRIRFQGASDDYIEQRYEKMMECGGFPNYFGQQRFGSRRRNTHDVGRLIVTGRYEDAVRLYLYDERYDIEDYRREFIETLDYNRALEKFPRTLRFERSIIGYYAQHHTFKGAFDALPKNLSIMFVHAYQSYLFNRMLSLRIEKYGLNRAIPGDTAFPVDRYFNPDKSRPVEVNEVNVDTINQLIERDRLRVALPIIGSEVGPDQSDFGEIEKKILEEEHVDRSMFRNSEYPHLSSTGDRRIVSAKPVDFSVSNSVMDFTLGRGIYATTLISTFGDLVDFDAESDGF | soluble
MTEKHKTMGKFKVIVLAGTAGTGKSTIAGELIHEFKDIYPDLKFIEGDDLHPPANVEKMTRGIPLNDDDRWDWLKKVAVESTKAAASTKEHLSIVACSSLKKKYRDLIRHTCPESEFHFIFLYASKIEVLKRLKTRKGHFMKADMMESQFRDLELPDINDETDCDIVPLDFKTFYQIEKDVIQVVKSKVLNIE | not soluble
MGSDKIHHHHHHMSKKTYYYHSESEDLVSSAQQDFQLPDDYQFFREGVAWQFWNGLVRSLACAFAWLYSRLFLLVKVKGKEKLRPFKKQGYFVYGNHTQMLGDPFNPMTIVNPYHYYALAAQANWGIPFLGKYVIPAAGLPVGKNIKQSIRLLKDVKYAYEEKQAAIVIYPEAHLWPYYTKIRPFPATSFNFPVSLKAPAFAMTTTYQPCRWRKRPKITVYIDGPFYPDEKLGKKAAQEKLHGEIAKSMQERAKLSTCEYCSYVKIDSKN | not soluble
